Assay results as given in the supplement of paper PMC10724198.
± gives the standard deviation of the averaged measurements.

Test system: Saccharomyces cerevisiae
Assay: protein stability index of tFT-peptide fusion (C-terminal peptide) (PSI (0-1 scale)); higher = more stable (slower turnover)
Details: genetic background: wild type; temperature: 30 C
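Further: PSI is a weighted mean of sequencing reads over stability bins, variants kept only with over 10 reads, mCherry proximal and sfGFP distal, peptide attached via GGGS linker.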

Row | Sequence | protein stability index
1 | PPSPLSRYSPRL | 0.754 ± 0.0043
2 | PPSPPAPSPTPP | 0.721 ± 0.038
3 | PPSPPDPLLCSP | 0.7017 ± 0.0043
4 | PPSPPPPRPPSS | 0.704 ± 0.055
5 | PPSPPSHTPPPS | 0.695 ± 0.051
6 | PPSPRFFPSFPP | 0.729 ± 0.021
7 | PPSPRNSDPPPL | 0.654 ± 0.071
8 | PPSPRPALPLSL | 0.762 ± 0.039
9 | PPSPRPPPSPPP | 0.7 ± 0.039
10 | PPSPSLLPPLPP | 0.684 ± 0.041
11 | PPSPSPHPPPSH | 0.842 ± 0.15
12 | PPSPSPLPHSSP | 0.676 ± 0.058
13 | PPSQLWNSPSPC | 0.767 ± 0.064
14 | PPSRFPAPPSCA | 0.705 ± 0.059
15 | PPSSPLRRRTTS | 0.725 ± 0.078
16 | PPSSPPPASHRP | 0.691 ± 0.046
17 | PPSTPPRPDSPP | 0.578 ± 0.084
18 | PPTANLAHSSHP | 0.693 ± 0.014
19 | PPTHHRALRPSA | 0.687 ± 0.026
20 | PPTLPPPSPLIL | 0.775 ± 0.11
21 | PPTPMRAQRHPR | 0.579 ± 0.01
22 | PPTPPLVPPTRH | 0.739 ± 0.016
23 | PPTPPPLRPSFS | 0.704 ± 0.023
24 | PPTPPPPSGLPP | 0.678 ± 0.05
25 | PPTPPPRPLQLP | 0.652 ± 0.0076
26 | PPTRPFHLFDHL | 0.716 ± 0.029

Row | Sequence | protein stability index
27 | PPVLAVRTSLDA | 0.636 ± 0.021
28 | PPVSPPPSRHPL | 0.719 ± 0.04
29 | PPYPCRRPPPPP | 0.647 ± 0.033
30 | PPYPRRWAPLGP | 0.6872 ± 0.0051
31 | PPYSLLFHPFPF | 0.699 ± 0.018
32 | PQPHLLRPPPHS | 0.674 ± 0.018
33 | PQVSYYLLPPSS | 0.711 ± 0.11
34 | PQWVSIGSACCQ | 0.754 ± 0.076
35 | PQYGTNQGRWTG | 0.705 ± 0.055
36 | PRALCPSSPPSR | 0.764 ± 0.12
37 | PRAPRLQAPGPG | 0.75233 ± 0.00055
38 | PRCPVNTHPLAR | 0.702 ± 0.013
39 | PRGVLSCPVFAP | 0.776 ± 0.029
40 | PRGYCGLGRPAR | 0.6305 ± 0.0013
41 | PRIFPDPVFPSL | 0.688 ± 0.046
42 | PRKISSFESSLT | 0.629 ± 0.086
43 | PRLFPSSPLPFN | 0.822 ± 0.018
44 | PRLLSLKLSALS | 0.629 ± 0.063
45 | PRLPPLRPPPSP | 0.7079 ± 0.0064
46 | PRLPPPSPPPLP | 0.735 ± 0.01
47 | PRLPTSPVPHPP | 0.6473 ± 0.0033
48 | PRLSGLFLAPPS | 0.707 ± 0.037
49 | PRLSTYPDSPGS | 0.71038 ± 0.00066
50 | PRLVALFEKNPD | 0.6615 ± 0.0012
51 | PRPCPASSPRPP | 0.627 ± 0.083
52 | PRPLLFPLIFTP | 0.627 ± 0.026

Row | Sequence | protein stability index
53 | PRPLTPDPPRPL | 0.693 ± 0.062
54 | PRPPARPPLRLL | 0.719 ± 0.017
55 | PRPPPPARSPPS | 0.66 ± 0.06
56 | PRPPPPCPPPSL | 0.71 ± 0.083
57 | PRPPPSQATLSP | 0.637 ± 0.052
58 | PRPPRAPPPLPS | 0.643 ± 0.1
59 | PRPPSPAPPPHP | 0.69904 ± 0.00044
60 | PRPPSPRAPPPH | 0.631 ± 0.067
61 | PRPRRFPPPLLA | 0.5103 ± 0.0049
62 | PRPVRPSPHPPP | 0.689 ± 0.1
63 | PRRPPPSPPVPP | 0.532 ± 0.03
64 | PRRQCIRAPCAR | 0.641 ± 0.018
65 | PRSLPSFHPPFH | 0.658 ± 0.074
66 | PRSPHPLPPTPP | 0.666 ± 0.0084
67 | PRSPPPPPSYSP | 0.703 ± 0.13
68 | PRSSLPPPPSLP | 0.686 ± 0.038
69 | PRTLTPVCPAPH | 0.702 ± 0.015
70 | PSALSEQQANGF | 0.6838 ± 0.0022
71 | PSAPPTPLAPSH | 0.678 ± 0.028
72 | PSASPPPPARQP | 0.672 ± 0.057
73 | PSASRILSPPLP | 0.649 ± 0.016
74 | PSCCPPATLPPP | 0.687 ± 0.056
75 | PSCFFPFPPRPL | 0.727 ± 0.04
76 | PSDTSHPAWRAN | 0.708 ± 0.025
77 | PSFPLLPPPSLS | 0.6913 ± 0.0051
78 | PSFPPLPLSTPP | 0.762 ± 0.063

Row | Sequence | protein stability index
79 | PSFPRSPHTAPH | 0.746 ± 0.022
80 | PSFPSLLPPPPT | 0.703 ± 0.025
81 | PSGGRGSRWWGV | 0.7348 ± 0.006
82 | PSGGSQSLGRLG | 0.634 ± 0.034
83 | PSGPSTVLPSPL | 0.6866 ± 0.0065
84 | PSGSVLAEGRGP | 0.678 ± 0.077
85 | PSHPPPPSPTPP | 0.754 ± 0.024
86 | PSHTPLPPSSLS | 0.763 ± 0.089
87 | PSISSTSPLPRP | 0.633 ± 0.039
88 | PSLLPPRVCRPS | 0.68 ± 0.089
89 | PSLPHLPSTSSC | 0.681 ± 0.023
90 | PSLPLPPPPAHP | 0.65 ± 0.02
91 | PSLPPRPQLVHS | 0.596 ± 0.017
92 | PSLRLPVSVPTL | 0.717 ± 0.018
93 | PSNNHRPPGCAD | 0.685 ± 0.023
94 | PSPAAPSPPCLP | 0.64 ± 0.045
95 | PSPAHLPPRSPL | 0.714 ± 0.2
96 | PSPAPFPSSPSL | 0.687 ± 0.0073
97 | PSPAPLASPPRA | 0.693 ± 0.042
98 | PSPAPPSPPSPP | 0.679 ± 0.028
99 | PSPASPTPPLVQ | 0.682 ± 0.067
100 | PSPATCGSSFSK | 0.734 ± 0.056
101 | PSPATCLCSPLP | 0.7057 ± 0.0019
